The text below walks through data of patent publication US20120172293A1 (Takeda / Millennium, published 2012).

Non-standard residues stand in square brackets, D forms with d. No end group written: not given here. *: point of attachment. X11 = ((1S)-1-carboxy-3-methylbutyl)carbamoyl, CC(C)C[C@H](NC(=O)*)C(=O)O; Phe(3-Me) = Cc1cccc(C[C@H](N)C(=O)O)c1; Phe(2-Me) = Cc1ccccc1C[C@H](N)C(=O)O; tBuAla = CC(C)(C)C[C@H](N)C(=O)O; 4Pal = N[C@@H](Cc1ccncc1)C(=O)O; Cha = N[C@@H](CC1CCCCC1)C(=O)O; 4Amb = NCc1ccc(C(=O)O)cc1; Abu = CC[C@H](N)C(=O)O; Aib = CC(C)(N)C(=O)O; Ahx = NCCCCCC(=O)O

The target of assay [1] is T1, human Y2 receptor (human, UniProt P49146 1-381).
T1 sequence (looked up): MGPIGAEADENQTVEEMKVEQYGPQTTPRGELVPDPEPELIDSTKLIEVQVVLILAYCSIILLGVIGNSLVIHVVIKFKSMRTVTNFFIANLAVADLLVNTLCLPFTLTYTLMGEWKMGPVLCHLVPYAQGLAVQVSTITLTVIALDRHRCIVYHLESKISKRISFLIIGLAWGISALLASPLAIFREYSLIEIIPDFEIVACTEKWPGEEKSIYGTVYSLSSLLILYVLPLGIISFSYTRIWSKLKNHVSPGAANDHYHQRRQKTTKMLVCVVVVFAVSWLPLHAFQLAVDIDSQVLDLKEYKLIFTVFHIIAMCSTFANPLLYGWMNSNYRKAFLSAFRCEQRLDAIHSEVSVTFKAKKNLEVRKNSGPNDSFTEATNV
Description: cell-based or functional assay.

For assay [2], the target named is T1, human Y2 receptor. Description: RBA: displacement of [125I]-PYY from hY2R/CHO membranes. The procedure:
After incubation at room temperature for 60 minutes, the mixture was filtered through the cell harvester FilterMate (PerkinElmer) using UniFilter-96 GF/C treated with polyethylenimine (PEI) solution (20 mM Tris, 0.3% PEI, pH 7.4), and the filter was washed 3 times with a filtering buffer (50 mM Tris, 5 mM MgCl₂, 150 mM NaCl, 0.03% NaN₃, 0.05% CHAPS, pH 7.4). Thereafter, UniFilter-96 GF/C was dried in a mechanical drier for 1 hour, 15 μl of the liquid scintillator MicroScint O (PerkinElmer) was added to each well, and a measurement was taken using TopCount (PerkinElmer). The data obtained were analyzed using Prism to calculate the IC₅₀ value.

The target in assay [3] is T2, human Y2 receptor (human), P49146.
T2 chain: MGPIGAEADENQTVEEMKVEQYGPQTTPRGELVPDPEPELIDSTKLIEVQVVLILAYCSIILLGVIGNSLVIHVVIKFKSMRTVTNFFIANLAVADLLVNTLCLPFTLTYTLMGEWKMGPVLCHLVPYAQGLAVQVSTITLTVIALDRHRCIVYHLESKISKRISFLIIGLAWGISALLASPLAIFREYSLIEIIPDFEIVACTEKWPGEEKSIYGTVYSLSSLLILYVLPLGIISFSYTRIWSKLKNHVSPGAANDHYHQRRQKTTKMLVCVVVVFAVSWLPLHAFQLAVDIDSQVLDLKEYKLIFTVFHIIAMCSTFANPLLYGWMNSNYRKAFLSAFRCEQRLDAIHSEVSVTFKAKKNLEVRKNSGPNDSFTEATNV
As to the kind of experiment: RBA: [125I]-PYY displacement, hY2R/CHO membranes.

The target is the same in assay [4]. Description: cell-based or functional assay.

B1: Ac-[D-Pro24, Cha27, Leu(Me)28, Lys30, Aib31, Phe(3Me)36]-PYY(23-36) (peptide)
peptide: Ac-S[dP]RH[Cha][tBuAla]NK[Aib]TRQR[Phe(3-Me)]-NH2
SMILES: CC(=O)N[C@@H](CO)C(=O)N1CCC[C@@H]1C(=O)N[C@@H](CCCNC(=N)N)C(=O)N[C@@H](Cc1c[nH]cn1)C(=O)N[C@@H](CC1CCCCC1)C(=O)N[C@@H](CC(C)(C)C)C(=O)N[C@@H](CC(N)=O)C(=O)N[C@@H](CCCCN)C(=O)NC(C)(C)C(=O)N[C@H](C(=O)N[C@@H](CCCNC(=N)N)C(=O)N[C@@H](CCC(N)=O)C(=O)N[C@@H](CCCNC(=N)N)C(=O)N[C@@H](Cc1cccc(C)c1)C(N)=O)[C@@H](C)O
notes: also called compound No. 258
As for B1, the “GBA EC50 Ratio ([35S]GTPγS binding)” value with human Y2 receptor [1] is 0.78 EC50 compound/EC50 PYY(3-36). The “IC50 Ratio” value with human Y2 receptor [2] was 0.61 IC50 compound/IC50 PYY(3-36).

B2: [(1S)-1-carboxy-3-methylbutyl]carbamoyl-[D-Pro24, Cha27,36, Leu(Me)28, Lys30, Aib31]-PYY(23-36) (peptide)
peptide: X11-S[dP]RH[Cha][tBuAla]NK[Aib]TRQR[Cha]-NH2
SMILES: CC(C)C[C@H](NC(=O)N[C@@H](CO)C(=O)N1CCC[C@@H]1C(=O)N[C@@H](CCCNC(=N)N)C(=O)N[C@@H](Cc1c[nH]cn1)C(=O)N[C@@H](CC1CCCCC1)C(=O)N[C@@H](CC(C)(C)C)C(=O)N[C@@H](CC(N)=O)C(=O)N[C@@H](CCCCN)C(=O)NC(C)(C)C(=O)N[C@H](C(=O)N[C@@H](CCCNC(=N)N)C(=O)N[C@@H](CCC(N)=O)C(=O)N[C@@H](CCCNC(=N)N)C(=O)N[C@@H](CC1CCCCC1)C(N)=O)[C@@H](C)O)C(=O)O
notes: also called compound No. 253
B2: the “GBA EC50 Ratio ([35S]GTPγS binding)” value with human Y2 receptor [1] is 0.85 EC50 compound/EC50 PYY(3-36). In addition, the “IC50 Ratio” value with human Y2 receptor [2] was 1.1 IC50 compound/IC50 PYY(3-36).

B3: Ac-[Arg20, D-Tyr21, D-Pro24, Pya(4)26, Cha27, Aib28,31, Lys30, Phe(2Me)36]-PYY(20-36) (peptide)
peptide: Ac-R[dY]AS[dP]R[4Pal][Cha][Aib]NK[Aib]TRQR[Phe(2-Me)]-NH2
SMILES: CC(=O)N[C@@H](CCCNC(=N)N)C(=O)N[C@H](Cc1ccc(O)cc1)C(=O)N[C@@H](C)C(=O)N[C@@H](CO)C(=O)N1CCC[C@@H]1C(=O)N[C@@H](CCCNC(=N)N)C(=O)N[C@@H](Cc1ccncc1)C(=O)N[C@@H](CC1CCCCC1)C(=O)NC(C)(C)C(=O)N[C@@H](CC(N)=O)C(=O)N[C@@H](CCCCN)C(=O)NC(C)(C)C(=O)N[C@H](C(=O)N[C@@H](CCCNC(=N)N)C(=O)N[C@@H](CCC(N)=O)C(=O)N[C@@H](CCCNC(=N)N)C(=O)N[C@@H](Cc1ccccc1C)C(N)=O)[C@@H](C)O
notes: also called compound No. 261
Turning to B3, in the assay with human Y2 receptor [1], the “GBA EC50 Ratio ([35S]GTPγS binding)” value was 0.81 EC50 compound/EC50 PYY(3-36). In the assay with human Y2 receptor [2], the “IC50 Ratio” value is 0.54 IC50 compound/IC50 PYY(3-36).

B4: Ac-[Arg20, D-Tyr21, D-Pro24, Pya(4)26, Cha27, Aib28,31, Lys30, Phe(3Me)36]-PYY(20-36) (peptide)
peptide: Ac-R[dY]AS[dP]R[4Pal][Cha][Aib]NK[Aib]TRQR[Phe(3-Me)]-NH2
SMILES: CC(=O)N[C@@H](CCCNC(=N)N)C(=O)N[C@H](Cc1ccc(O)cc1)C(=O)N[C@@H](C)C(=O)N[C@@H](CO)C(=O)N1CCC[C@@H]1C(=O)N[C@@H](CCCNC(=N)N)C(=O)N[C@@H](Cc1ccncc1)C(=O)N[C@@H](CC1CCCCC1)C(=O)NC(C)(C)C(=O)N[C@@H](CC(N)=O)C(=O)N[C@@H](CCCCN)C(=O)NC(C)(C)C(=O)N[C@H](C(=O)N[C@@H](CCCNC(=N)N)C(=O)N[C@@H](CCC(N)=O)C(=O)N[C@@H](CCCNC(=N)N)C(=O)N[C@@H](Cc1cccc(C)c1)C(N)=O)[C@@H](C)O
notes: also called compound No. 262
Take B4: in the assay with human Y2 receptor [1], the “GBA EC50 Ratio ([35S]GTPγS binding)” value was 1.7 EC50 compound/EC50 PYY(3-36). The “IC50 Ratio” value with human Y2 receptor [2] was 0.5 IC50 compound/IC50 PYY(3-36).

B5: Ac-[D-Tyr21, D-Pro24, Cha27,28,36, Aib31]-PYY(20-36) (peptide)
peptide: Ac-Y[dY]AS[dP]RH[Cha][Cha]NL[Aib]TRQR[Cha]-NH2
SMILES: CC(=O)N[C@@H](Cc1ccc(O)cc1)C(=O)N[C@H](Cc1ccc(O)cc1)C(=O)N[C@@H](C)C(=O)N[C@@H](CO)C(=O)N1CCC[C@@H]1C(=O)N[C@@H](CCCNC(=N)N)C(=O)N[C@@H](Cc1c[nH]cn1)C(=O)N[C@@H](CC1CCCCC1)C(=O)N[C@@H](CC1CCCCC1)C(=O)N[C@@H](CC(N)=O)C(=O)N[C@@H](CC(C)C)C(=O)NC(C)(C)C(=O)N[C@H](C(=O)N[C@@H](CCCNC(=N)N)C(=O)N[C@@H](CCC(N)=O)C(=O)N[C@@H](CCCNC(=N)N)C(=O)N[C@@H](CC1CCCCC1)C(N)=O)[C@@H](C)O
notes: also called compound No. 355
Take B5: the “GBA EC50 Ratio ([35S]GTPγS binding)” value with human Y2 receptor [1] is 1.1 EC50 compound/EC50 PYY(3-36). In addition, in the assay with human Y2 receptor [2], the “IC50 Ratio” value was 1.4 IC50 compound/IC50 PYY(3-36).

B6: [Ile22,28,31, Lys23, Acp24, Ala26]-PYY(22-36) (peptide)
peptide: IK[Ahx]RAYINLITRQRY-NH2
modifications: N-terminus assumed
SMILES: CC[C@H](C)[C@H](N)C(=O)N[C@@H](CCCCN)C(=O)NCCCCCC(=O)N[C@@H](CCCNC(=N)N)C(=O)N[C@@H](C)C(=O)N[C@@H](Cc1ccc(O)cc1)C(=O)N[C@H](C(=O)N[C@@H](CC(N)=O)C(=O)N[C@@H](CC(C)C)C(=O)N[C@H](C(=O)N[C@H](C(=O)N[C@@H](CCCNC(=N)N)C(=O)N[C@@H](CCC(N)=O)C(=O)N[C@@H](CCCNC(=N)N)C(=O)N[C@@H](Cc1ccc(O)cc1)C(N)=O)[C@@H](C)O)[C@@H](C)CC)[C@@H](C)CC
notes: also called compound No. 353
As for B6, the “GBA EC50 Ratio ([35S]GTPγS binding)” value in the assay with human Y2 receptor [1] is 4.8 EC50 compound/EC50 PYY(3-36). For the same molecule, the “IC50 Ratio” value with human Y2 receptor [2] is 9.1 IC50 compound/IC50 PYY(3-36).

B7: 4-Aminomethylbenzoyl-[Ala26, ILe28,31, Abu32]-PYY(25-36) (peptide)
peptide: [4Amb]RAYINLI[Abu]RQRY-NH2
modifications: N-terminus assumed
SMILES: CC[C@H](NC(=O)[C@@H](NC(=O)[C@H](CC(C)C)NC(=O)[C@H](CC(N)=O)NC(=O)[C@@H](NC(=O)[C@H](Cc1ccc(O)cc1)NC(=O)[C@H](C)NC(=O)[C@H](CCCNC(=N)N)NC(=O)c1ccc(CN)cc1)[C@@H](C)CC)[C@@H](C)CC)C(=O)N[C@@H](CCCNC(=N)N)C(=O)N[C@@H](CCC(N)=O)C(=O)N[C@@H](CCCNC(=N)N)C(=O)N[C@@H](Cc1ccc(O)cc1)C(N)=O
notes: also called compound No. 354
As to B7, the “GBA EC50 Ratio ([35S]GTPγS binding)” value in the assay with human Y2 receptor [1] was 33 EC50 compound/EC50 PYY(3-36). In addition, in the assay with human Y2 receptor [2], the “IC50 Ratio” value is 68 IC50 compound/IC50 PYY(3-36).

B8: Ac-[D-Pro24, Cha27, Leu(Me)28, Lys30, Aib31, Phe(2Me)36]-PYY(23-36) (peptide)
peptide: Ac-S[dP]RH[Cha][tBuAla]NK[Aib]TRQR[Phe(2-Me)]-NH2
SMILES: CC(=O)N[C@@H](CO)C(=O)N1CCC[C@@H]1C(=O)N[C@@H](CCCNC(=N)N)C(=O)N[C@@H](Cc1c[nH]cn1)C(=O)N[C@@H](CC1CCCCC1)C(=O)N[C@@H](CC(C)(C)C)C(=O)N[C@@H](CC(N)=O)C(=O)N[C@@H](CCCCN)C(=O)NC(C)(C)C(=O)N[C@H](C(=O)N[C@@H](CCCNC(=N)N)C(=O)N[C@@H](CCC(N)=O)C(=O)N[C@@H](CCCNC(=N)N)C(=O)N[C@@H](Cc1ccccc1C)C(N)=O)[C@@H](C)O
notes: also called compound No. 255
As to B8, in the assay with human Y2 receptor [1], the “GBA EC50 Ratio ([35S]GTPγS binding)” value was 0.86 EC50 compound/EC50 PYY(3-36). The “IC50 Ratio” value in the assay with human Y2 receptor [2] is 0.8 IC50 compound/IC50 PYY(3-36).

In the case of [4Amb]RAYINLVTRQRY (ends and bridges not checked) [4-Aminomethylbenzoyl-[Ala26, Ile28, VAl31]-PYY(25-36)], in assay [3], the IC50 Ratio (vs PYY(3-36)) worked out at 7.2. The GBA EC50 Ratio (vs PYY(3-36)), [35S]GTPγS in assay [4] amounted to 4.
